Assays:
Test in all cases: ELISA; thermolysin coated on microtiter plates (100 ul; 10 ug/ml, 16 h, 4 C), blocked with 3% BSA in PBS; C6, C7, C8 or C9 added (100 ul; 0-5 ug/ml) for 1 h at 37 C; detected with goat polyclonal antibodies, absorbance at 492 nm; Kd by non-linear regression Y = Bmax*X/(Kd + X); for C6 also with a fixed amount (1 ug) in 0-600 mM NaCl (reduced only at 600 mM) or 0.05-1 ug heparin (dose-dependent inhibition)
Conditions in all cases: both partners purified
[1] = target: T1, Complement component C6, purified from human plasma (human, UniProt P13671 22-934)
T1 construct: human complement component C6, single polypeptide chain (~100 kDa), purified from plasma; source: bought: Complement Technology (purified from human plasma)
T1 sequence (P13671 22-934): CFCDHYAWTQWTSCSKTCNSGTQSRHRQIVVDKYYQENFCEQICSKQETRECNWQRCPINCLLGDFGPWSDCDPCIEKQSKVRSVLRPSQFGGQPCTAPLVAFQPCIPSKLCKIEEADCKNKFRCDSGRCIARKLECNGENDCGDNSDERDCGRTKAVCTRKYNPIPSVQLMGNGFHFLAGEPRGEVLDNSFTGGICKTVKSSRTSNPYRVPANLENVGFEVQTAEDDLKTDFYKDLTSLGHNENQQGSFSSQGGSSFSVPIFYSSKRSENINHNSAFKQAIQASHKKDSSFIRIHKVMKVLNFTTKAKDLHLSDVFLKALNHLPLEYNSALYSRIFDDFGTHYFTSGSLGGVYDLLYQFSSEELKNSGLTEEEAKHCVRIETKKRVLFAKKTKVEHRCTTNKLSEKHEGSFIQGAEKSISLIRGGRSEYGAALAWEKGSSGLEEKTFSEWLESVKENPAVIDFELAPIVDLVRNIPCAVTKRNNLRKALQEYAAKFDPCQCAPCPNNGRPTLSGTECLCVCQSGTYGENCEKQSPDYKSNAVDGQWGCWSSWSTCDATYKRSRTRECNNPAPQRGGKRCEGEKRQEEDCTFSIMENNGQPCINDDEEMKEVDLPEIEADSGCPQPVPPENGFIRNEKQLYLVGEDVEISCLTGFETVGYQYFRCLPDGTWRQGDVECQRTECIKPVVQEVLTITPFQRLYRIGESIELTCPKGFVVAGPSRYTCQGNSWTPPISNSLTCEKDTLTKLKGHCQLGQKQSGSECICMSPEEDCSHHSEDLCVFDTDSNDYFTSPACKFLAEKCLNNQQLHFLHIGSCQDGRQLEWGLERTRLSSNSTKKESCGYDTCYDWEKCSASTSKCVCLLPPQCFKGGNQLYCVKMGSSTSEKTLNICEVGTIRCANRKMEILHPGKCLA

[2] = target: T2, Complement component C7, purified from human plasma (human, UniProt P10643 23-843)
T2 construct: human complement component C7, 95 kDa single chain, purified from plasma; source: bought: Complement Technology (purified from human plasma)
T2 sequence (P10643 23-843): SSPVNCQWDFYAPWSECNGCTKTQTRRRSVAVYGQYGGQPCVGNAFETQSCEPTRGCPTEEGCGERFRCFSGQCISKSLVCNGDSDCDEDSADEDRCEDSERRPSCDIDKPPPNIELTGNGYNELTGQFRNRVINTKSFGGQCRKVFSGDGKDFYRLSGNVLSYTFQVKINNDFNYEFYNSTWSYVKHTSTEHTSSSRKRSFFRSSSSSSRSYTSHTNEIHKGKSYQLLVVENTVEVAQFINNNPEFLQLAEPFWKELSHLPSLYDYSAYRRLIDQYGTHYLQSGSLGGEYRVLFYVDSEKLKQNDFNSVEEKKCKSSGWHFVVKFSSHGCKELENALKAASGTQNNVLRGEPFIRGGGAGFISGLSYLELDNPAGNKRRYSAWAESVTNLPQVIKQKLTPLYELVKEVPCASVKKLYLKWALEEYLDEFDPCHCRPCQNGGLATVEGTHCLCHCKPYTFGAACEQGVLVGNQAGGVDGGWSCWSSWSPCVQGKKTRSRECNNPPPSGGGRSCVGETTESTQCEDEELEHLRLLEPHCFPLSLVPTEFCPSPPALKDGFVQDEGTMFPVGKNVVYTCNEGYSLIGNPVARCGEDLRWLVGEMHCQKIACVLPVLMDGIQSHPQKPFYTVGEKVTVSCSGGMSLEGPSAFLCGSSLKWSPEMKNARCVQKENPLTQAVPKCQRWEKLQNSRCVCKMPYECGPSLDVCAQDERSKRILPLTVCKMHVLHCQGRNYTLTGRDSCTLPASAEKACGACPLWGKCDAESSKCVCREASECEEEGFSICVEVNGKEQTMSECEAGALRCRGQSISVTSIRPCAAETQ

[3] = target: T3, Complement component C8, purified from human plasma (human, UniProt P07357 31-584; P07358 55-591; P07360 21-202)
T3 construct: human complement component C8 alpha chain (~64 kDa), purified from plasma as intact C8; human complement component C8 beta chain (~64 kDa), purified from plasma as intact C8; human complement component C8 gamma chain (~22 kDa), purified from plasma as intact C8; Intact C8 of three polypeptide chains (alpha, beta, gamma); source: bought: Complement Technology (purified from human plasma); copies: …
T3 sequence (P07357 31-584, chain 1 of 3): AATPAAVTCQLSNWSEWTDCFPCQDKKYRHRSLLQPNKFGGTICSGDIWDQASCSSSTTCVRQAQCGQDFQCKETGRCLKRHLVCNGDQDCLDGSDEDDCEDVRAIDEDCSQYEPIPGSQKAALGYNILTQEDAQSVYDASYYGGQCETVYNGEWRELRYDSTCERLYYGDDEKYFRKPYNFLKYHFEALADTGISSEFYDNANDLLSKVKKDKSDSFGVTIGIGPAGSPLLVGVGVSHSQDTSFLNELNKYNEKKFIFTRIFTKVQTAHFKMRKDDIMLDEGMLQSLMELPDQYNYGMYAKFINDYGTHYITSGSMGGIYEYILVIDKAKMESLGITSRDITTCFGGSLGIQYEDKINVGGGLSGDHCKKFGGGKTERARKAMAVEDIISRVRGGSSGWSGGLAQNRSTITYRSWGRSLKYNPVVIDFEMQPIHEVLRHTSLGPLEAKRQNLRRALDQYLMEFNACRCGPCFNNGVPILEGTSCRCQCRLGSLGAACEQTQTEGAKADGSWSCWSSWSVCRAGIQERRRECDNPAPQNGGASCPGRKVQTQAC
T3 sequence (P07358 55-591, chain 2 of 3): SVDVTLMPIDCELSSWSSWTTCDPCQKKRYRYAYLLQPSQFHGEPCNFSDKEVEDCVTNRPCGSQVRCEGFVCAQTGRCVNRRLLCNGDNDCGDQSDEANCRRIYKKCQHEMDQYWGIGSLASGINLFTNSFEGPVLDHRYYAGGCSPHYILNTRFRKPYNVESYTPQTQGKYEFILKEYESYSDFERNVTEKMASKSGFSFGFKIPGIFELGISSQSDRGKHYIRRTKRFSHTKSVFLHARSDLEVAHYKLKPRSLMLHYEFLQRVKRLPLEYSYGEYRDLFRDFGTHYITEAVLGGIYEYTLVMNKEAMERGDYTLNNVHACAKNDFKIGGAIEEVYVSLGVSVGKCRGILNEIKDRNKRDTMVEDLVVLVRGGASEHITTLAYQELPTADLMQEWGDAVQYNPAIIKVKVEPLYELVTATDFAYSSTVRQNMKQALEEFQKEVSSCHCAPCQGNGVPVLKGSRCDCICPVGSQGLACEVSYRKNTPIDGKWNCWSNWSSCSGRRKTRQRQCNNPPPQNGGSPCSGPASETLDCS
T3 sequence (P07360 21-202, chain 3 of 3): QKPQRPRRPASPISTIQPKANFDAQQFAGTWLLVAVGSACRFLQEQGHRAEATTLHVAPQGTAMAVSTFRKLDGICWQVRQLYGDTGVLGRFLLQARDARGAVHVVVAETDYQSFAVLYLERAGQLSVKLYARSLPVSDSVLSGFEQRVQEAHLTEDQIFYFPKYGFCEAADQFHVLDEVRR

[4] = target: T4, Complement component C9, purified from human plasma (human, UniProt P02748 22-559)
T4 construct: human complement component C9, single 71 kDa polypeptide chain, purified from plasma; source: bought: Complement Technology (purified from human plasma)
T4 sequence (P02748 22-559): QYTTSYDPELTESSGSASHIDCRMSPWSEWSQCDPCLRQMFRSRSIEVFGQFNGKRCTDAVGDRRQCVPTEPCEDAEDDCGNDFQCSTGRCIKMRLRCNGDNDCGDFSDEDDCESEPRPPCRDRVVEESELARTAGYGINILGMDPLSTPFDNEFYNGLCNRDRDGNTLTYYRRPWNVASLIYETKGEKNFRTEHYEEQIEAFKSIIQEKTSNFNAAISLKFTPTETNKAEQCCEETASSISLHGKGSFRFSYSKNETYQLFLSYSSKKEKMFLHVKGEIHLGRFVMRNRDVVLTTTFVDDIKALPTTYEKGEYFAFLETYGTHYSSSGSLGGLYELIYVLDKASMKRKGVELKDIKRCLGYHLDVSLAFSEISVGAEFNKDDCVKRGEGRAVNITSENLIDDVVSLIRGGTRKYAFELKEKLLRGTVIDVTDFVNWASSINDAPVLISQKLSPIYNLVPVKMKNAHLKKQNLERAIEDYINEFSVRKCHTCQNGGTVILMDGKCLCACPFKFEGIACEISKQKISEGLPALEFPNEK

B1: recombinant thermolysin (LIC13322), PepSY-M4 fragment (domain or fragment)
chain: EFYQVPENFNSSPKLSESEALSKTLKHIGAKKYIWESVEREAALKRKKNDPNASYFPKGELLVYEHSLGKSNTKKEFRLAYKFGIASIDPPISRYVYVDSNSGEILSSKDARRYEGVQFPSPKPPIEIDIDYSRCIIDKEYCIEQGTAMTRFSGLQSITTWTAGKTNHFELKDNSRGGGIYTYSWEFVKDPLEDIQLLNIPMIDTNNSWSQSEYHDNYNHDALLDAHWGIEMTYDYFKSIHNRLSYDGDNSRIFNNVHYFNAFVANNAYWDPVTEEIYYVYCPHKNSICKGFNLPILLDPKYEDFTSLDIVSHEFGHGINGDLAGFNLDMEPGALDEGFSDIWNVGVNNYVNKVLGMQKNIWLVGDETVPGGGMRSVSNPKSTTVMSPGPNTYHGDLWDFEDNEAHTNSLVLSHWFYTLSKGKQGFNDYECTYNVSGIGIEKAERIAYVALLFLSSTSGYTSARTYAIIAAKLLYGLFSSEVKSTIDAWDAVAVPAETTSRGGQGMVRPRHYIASVKLSNVTNDSGNDCGYKDNSYLLPTVLRGVTYNMVLLSQGSASNPSKVHKWRVWIDFNQNGSFESSEMVVQDTVNSSFGGTLQKSIKIPTNALTGYAKMRVSMKAAQSGEAYQGSSESFVEGEVEDYIVSILDFSL
What does the source list for B1?
Kd [1]: 31.8 ± 2.2 nM; Kd [2]: 17.8 ± 1.3 nM; Kd [3]: 62 ± 7.1 nM; Kd [4]: 56.8 ± 5.2 nM

Source: PMC5447677, “Pathogenic Leptospira Secreted Proteases Target the Membrane Attack Complex: A Potential Role for Thermolysin in Complement Inhibition” (Frontiers in Microbiology, 2017)
